Assay [1] addresses T1, human fibroblast activation protein (FAP) on FAP-expressing human WI-38 fibroblasts (human). Kind of assay: competition FACS, WI-38 cells, vs Cy5-labeled compound; A: pIC50 >8.0.
Assay [2] deals with T1, human fibroblast activation protein …. Kind of assay: competition FACS, WI-38 cells, vs Cy5-labeled compound; D: pIC50 ≤6.0.

Numbered stars: 1 amine (or outer) side, 2 acyl side, 3 side chain; on linkers, the order of the positions; unused ones are H or OH. Bridge positions count the residues as written; N and C are the ends. Ends that are not written are not given here. * marks the point of attachment. Ttds = 1,13-diamino-4,7,10-trioxatridecan-succinamic acid, NCCCOCCOCCOCCCNC(=O)CCC(=O)*; tMeBn(DOTA-AET) = Cys-Cys bridge (thioethers) carrying DOTA-AET; tMeBn(DOTA-PP) = Cys-Cys bridge (thioethers) carrying DOTA-PP; DOTA = O=C(O)CN1CCN(CC(=O)O)CCN(CC(=O)*)CCN(CC(=O)O)CC1; mXylylene = c1cc(C[*:1])cc(C[*:2])c1; 2Lut = Cys-Cys bridge (thioethers); 3Lut = Cys-Cys bridge (thioethers); Pentanesulfonyl = CCCCCS(=O)(=O)*; Hexanoyl = CCCCCC(=O)*

T1 sequence (chain, as listed by the source): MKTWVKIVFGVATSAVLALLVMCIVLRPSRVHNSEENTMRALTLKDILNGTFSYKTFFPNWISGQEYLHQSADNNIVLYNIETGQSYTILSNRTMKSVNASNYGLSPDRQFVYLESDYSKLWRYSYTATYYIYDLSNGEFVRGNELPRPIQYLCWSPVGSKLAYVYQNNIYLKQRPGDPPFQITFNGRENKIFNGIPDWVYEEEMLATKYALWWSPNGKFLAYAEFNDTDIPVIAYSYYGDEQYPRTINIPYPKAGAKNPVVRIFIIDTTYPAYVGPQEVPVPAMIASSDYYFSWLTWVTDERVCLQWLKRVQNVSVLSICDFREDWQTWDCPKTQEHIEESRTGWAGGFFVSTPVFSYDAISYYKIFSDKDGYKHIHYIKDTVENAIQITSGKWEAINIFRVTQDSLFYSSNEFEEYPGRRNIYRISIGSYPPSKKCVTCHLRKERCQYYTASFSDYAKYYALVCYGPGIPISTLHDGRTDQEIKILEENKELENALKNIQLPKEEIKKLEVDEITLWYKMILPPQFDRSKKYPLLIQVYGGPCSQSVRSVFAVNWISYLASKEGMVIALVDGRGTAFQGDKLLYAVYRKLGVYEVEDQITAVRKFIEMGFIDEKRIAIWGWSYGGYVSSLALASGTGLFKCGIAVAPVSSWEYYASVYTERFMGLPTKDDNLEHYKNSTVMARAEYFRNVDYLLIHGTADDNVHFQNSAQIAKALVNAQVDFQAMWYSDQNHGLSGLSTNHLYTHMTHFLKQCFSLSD

B1: Hex-[Cys(3MeBn)-Pro-Pro-Thr-Gln-Phe-Cys]-Asp-NH2 (peptide)
peptide: Hexanoyl-CPPTQFCD-NH2
modifications: linker 1-7 via mXylylene
SMILES: CCCCCC(=O)N[C@H]1CSCc2cccc(c2)CSC[C@@H](C(=O)N[C@@H](CC(=O)O)C(N)=O)NC(=O)[C@H](Cc2ccccc2)NC(=O)[C@H](CCC(N)=O)NC(=O)[C@H]([C@@H](C)O)NC(=O)[C@@H]2CCCN2C(=O)[C@@H]2CCCN2C1=O
Consider B1, for which the “pIC50 Category (FACS)” value in assay [1] was more than 8 pIC50.

As to Pentanesulfonyl-CPPTEFC-OH (linker 1-7 via tMeBn(DOTA-AET)) [Pentyl-SO2-[Cys(tMeBn(DOTA-AET))-Pro-Pro-Thr-Glu-Phe-Cys]-OH], in assay [1], the “pIC50 Category (FACS)” value is more than 8 pIC50.

In the case of Hexanoyl-CPPTQFCD-OH (linker 1-7 via tMeBn(DOTA-AET)) [Hex-[Cys(tMeBn(DOTA-AET))-Pro-Pro-Thr-Gln-Phe-Cys]-Asp-OH], the “pIC50 Category (FACS)” value in assay [1] is more than 8 pIC50.

B2: Hex-[Cys(3MeBn)-Pro-Pro-Thr-Gln-Phe-Cys]-Asp-Ttds-Ape-NH-DOTA' (peptide)
peptide: Hexanoyl-CPPTQFCD
modifications: linker 1-7 via mXylylene; not fully specified (C-terminus); printed as Hex-[Cys(3MeBn)-Pro-Pro-Thr-Gln-Phe-Cys]-Asp-Ttds-Ape(DOTA)
Consider B2, for which, in assay [1], the “pIC50 Category (FACS)” value was more than 8 pIC50.

As for Hexanoyl-CPPTQFCD-NH2 (linker 1-7 via tMeBn(EuDOTA-PP); also: Eu-DOTA complex) [Hex-[Cys(tMeBn(EuDOTA-PP))-Pro-Pro-Thr-Gln-Phe-Cys]-Asp-NH2], in assay [1], the “pIC50 Category (FACS)” value was more than 8 pIC50.

With Hexanoyl-CPPTQFCD-NH2 (linker 1-7 via 3Lut) [Hex-[Cys(3Lut)-Pro-Pro-Thr-Gln-Phe-Cys]-Asp-NH2], the “pIC50 Category (FACS)” value in assay [1] is more than 8 pIC50.

B3: Hex-[Cys(3MeBn)-Pro-Pro-Thr-Glu-Phe-Cys]-Asp-His-Phe-Arg-Asp-NH2 (peptide)
peptide: Hexanoyl-CPPTEFCDHFRD-NH2
modifications: linker 1-7 via mXylylene
SMILES: CCCCCC(=O)N[C@H]1CSCc2cccc(c2)CSC[C@@H](C(=O)N[C@@H](CC(=O)O)C(=O)N[C@@H](Cc2c[nH]cn2)C(=O)N[C@@H](Cc2ccccc2)C(=O)N[C@@H](CCCNC(=N)N)C(=O)N[C@@H](CC(=O)O)C(N)=O)NC(=O)[C@H](Cc2ccccc2)NC(=O)[C@H](CCC(=O)O)NC(=O)[C@H]([C@@H](C)O)NC(=O)[C@@H]2CCCN2C(=O)[C@@H]2CCCN2C1=O
As for B3, in assay [1], the “pIC50 Category (FACS)” value was more than 8 pIC50.

For Hexanoyl-CPPTQFCD-NH2 (linker 1-7 via tMeBn(DOTA-AET)) [Hex-[Cys(tMeBn(DOTA-AET))-Pro-Pro-Thr-Gln-Phe-Cys]-Asp-NH2], the “pIC50 Category (FACS)” value in assay [1] is more than 8 pIC50.

B4: Ac-[Cys(3MeBn)-Pro-Pro-Thr-Glu-Phe-Cys]-Asp-His-Phe-Arg-Asp-NH2 (peptide)
peptide: Ac-CPPTEFCDHFRD-NH2
modifications: linker 1-7 via mXylylene
SMILES: CC(=O)N[C@H]1CSCc2cccc(c2)CSC[C@@H](C(=O)N[C@@H](CC(=O)O)C(=O)N[C@@H](Cc2c[nH]cn2)C(=O)N[C@@H](Cc2ccccc2)C(=O)N[C@@H](CCCNC(=N)N)C(=O)N[C@@H](CC(=O)O)C(N)=O)NC(=O)[C@H](Cc2ccccc2)NC(=O)[C@H](CCC(=O)O)NC(=O)[C@H]([C@@H](C)O)NC(=O)[C@@H]2CCCN2C(=O)[C@@H]2CCCN2C1=O
Regarding B4, in assay [1], the “pIC50 Category (FACS)” value is more than 8 pIC50.

B5: Hex-[Cys(3MeBn)-Pro-Pro-Thr-Gln-Phe-Cys]-Asp-Ape-NH-DOTA' (peptide)
peptide: Hexanoyl-CPPTQFCD
modifications: linker 1-7 via mXylylene; not fully specified (C-terminus); printed as Hex-[Cys(3MeBn)-Pro-Pro-Thr-Gln-Phe-Cys]-Asp-Ape(DOTA)
B5: the “pIC50 Category (FACS)” value in assay [1] was more than 8 pIC50.

B6: Hex-[Cys(3MeBn)-Pro-Pro-Ala-Glu-Phe-Cys]-NH2 (peptide)
peptide: Hexanoyl-CPPAEFC-NH2
modifications: linker 1-7 via mXylylene
SMILES: CCCCCC(=O)N[C@H]1CSCc2cccc(c2)CSC[C@@H](C(N)=O)NC(=O)[C@H](Cc2ccccc2)NC(=O)[C@H](CCC(=O)O)NC(=O)[C@H](C)NC(=O)[C@@H]2CCCN2C(=O)[C@@H]2CCCN2C1=O
As to B6, in assay [2], the “pIC50 Category (FACS)” value was not above 6 pIC50.

As to Hexanoyl-CPPTEFC-NH2 (linker 1-7 via tMeBn(DOTA-AET)) [Hex-[Cys(tMeBn(DOTA-AET))-Pro-Pro-Thr-Glu-Phe-Cys]-NH2], the “pIC50 Category (FACS)” value in assay [1] is more than 8 pIC50.

Turning to Pentanesulfonyl-CPPTQFCD-NH2 (linker 1-7 via tMeBn(DOTA-PP)) [Pentyl-SO2-[Cys(tMeBn(DOTA-PP))-Pro-Pro-Thr-Gln-Phe-Cys]-Asp-NH2], in assay [1], the “pIC50 Category (FACS)” value was more than 8 pIC50.

For the molecule Hexanoyl-CPPTQFCD-NH2 (linker 1-7 via tMeBn(LuDOTA-PP); also: Lu-DOTA complex) [Hex-[Cys(tMeBn(LuDOTA-PP))-Pro-Pro-Thr-Gln-Phe-Cys]-Asp-NH2], in assay [1], the “pIC50 Category (FACS)” value was more than 8 pIC50.

B7: Pentyl-SO2-[Cys(3MeBn)-Pro-Pro-Thr-Gln-Phe-Cys]-Asp-NH2 (peptide)
peptide: Pentanesulfonyl-CPPTQFCD-NH2
modifications: linker 1-7 via mXylylene
SMILES: CCCCCS(=O)(=O)N[C@H]1CSCc2cccc(c2)CSC[C@@H](C(=O)N[C@@H](CC(=O)O)C(N)=O)NC(=O)[C@H](Cc2ccccc2)NC(=O)[C@H](CCC(N)=O)NC(=O)[C@H]([C@@H](C)O)NC(=O)[C@@H]2CCCN2C(=O)[C@@H]2CCCN2C1=O
Turning to B7, the “pIC50 Category (FACS)” value in assay [1] is more than 8 pIC50.

Turning to Hexanoyl-CPPTQFCD-NH2 (linker 1-7 via tMeBn(InDOTA-PP); also: In-DOTA complex) [Hex-[Cys(tMeBn(InDOTA-PP))-Pro-Pro-Thr-Gln-Phe-Cys]-Asp-NH2], the “pIC50 Category (FACS)” value in assay [1] was more than 8 pIC50.

B8: Hex-[Cys(tMeBn(DOTA-AET))-Pro-Pro-Thr-Gln-Phe-Cys]-asp-NH2 (peptide)
peptide: CPPTQFCD
modifications: N-terminal Hex (hexanoyl); Cys1-Cys7 bridged by tMeBn(DOTA-AET) (thioethers); D-Asp8 (asp); C-terminal amide
With B8, the “pIC50 Category (FACS)” value in assay [1] was more than 8 pIC50.

With {DOTA-Ttds}-LCPPTEFCDHFRD-NH2 (linker 2-8 via mXylylene) [DOTA-Ttds-Leu-[Cys(3MeBn)-Pro-Pro-Thr-Glu-Phe-Cys]-Asp-His-Phe-Arg-Asp-NH2], the “pIC50 Category (FACS)” value in assay [1] was more than 8 pIC50.

B9: Hex-[Cys(3MeBn)-Pro-Pro-Thr-Ala-Phe-Cys]-NH2 (peptide)
peptide: Hexanoyl-CPPTAFC-NH2
modifications: linker 1-7 via mXylylene
SMILES: CCCCCC(=O)N[C@H]1CSCc2cccc(c2)CSC[C@@H](C(N)=O)NC(=O)[C@H](Cc2ccccc2)NC(=O)[C@H](C)NC(=O)[C@H]([C@@H](C)O)NC(=O)[C@@H]2CCCN2C(=O)[C@@H]2CCCN2C1=O
On to B9, for which the “pIC50 Category (FACS)” value in assay [2] was not above 6 pIC50.

With Hexanoyl-CPPTQFCD-NH2 (linker 1-7 via tMeBn(GaDOTA-PP)) [Hex-[Cys(tMeBn(GaDOTA-PP))-Pro-Pro-Thr-Gln-Phe-Cys]-Asp-NH2], the “pIC50 Category (FACS)” value in assay [1] was more than 8 pIC50.

Turning to Hexanoyl-CPPTQFCD-NH2 (linker 1-7 via tMeBn(DOTA-PP)) [Hex-[Cys(tMeBn(DOTA-PP))-Pro-Pro-Thr-Gln-Phe-Cys]-Asp-NH2], the “pIC50 Category (FACS)” value in assay [1] is more than 8 pIC50.

For the molecule Hexanoyl-CPPTQFCD-NH2 (linker 1-7 via 2Lut) [Hex-[Cys(2Lut)-Pro-Pro-Thr-Gln-Phe-Cys]-Asp-NH2], the “pIC50 Category (FACS)” value in assay [1] was more than 8 pIC50.

On to Hexanoyl-CPPTQFCS-OH (linker 1-7 via tMeBn(DOTA-AET)) [Hex-[Cys(tMeBn(DOTA-AET))-Pro-Pro-Thr-Gln-Phe-Cys]-Ser-OH], for which, in assay [1], the “pIC50 Category (FACS)” value is more than 8 pIC50.

These data come from patent US20220315554A1 (3B PHARMACEUTICALS GMBH, published 2022).
